Test results from patent US7868228.

B1: Moritella marina phosphopantetheinyl transferase, short form (Mm-ppt short) (protein)
chain: MYSGVKDKLTLTTNEIHLWSVTPQTIQQPELLQAYSQLLSPAETIKQQRFRFEKDRHNALITRAFVRDLLSHYADVLPADWQFVKGEKDKPEIANPPLPLRFNISHTDNLIICAVMLNDDIGCDVENTLRSSNVLSIAKHSFSDSEFNDLLTQPTAQQTSRFFDYWTLKESYIKAWGLGLSIPLKDFSFTLPEGFQQQYQQEDQQENQHCIDTIKLSFAPHRIDNPNIWRHWLFYPNNTHRVALAVRARSNNQQTEYKMRFFNSTPLINITETLIFKPETNFKPDAK
B2: Shewanella oneidensis MR-1 phosphopantetheinyl transferase (So-ppt) (protein)
chain: MKIELFFIPLAEMDAEMVSRCMALLSEDERAKVARYLAPKAQMNGLLVRAALRCVLSQGLQSPNESSLNAFSSNTGSLPIAPQDWCFEYGAKGKPSLCHEQFLKTGIEFNLSHSGDWLLIALAQGRAHTKFIDQSAKTRLGLGVDIERARASTNIYPILNHYFSARETEALLALPGETAHRQRFFDLWALKESYIKATGLGLAQSLKSFAFELMPDALVEVHPNQVALRHEWVELKRREPFALPSQLKLYCEIKPTAAFLPDSAHPPPENLHVQSYFGRLDEEYRFGLSLIHPNALSNVQISMTLASIKSLLAASLAD
B3: Moritella marina phosphopantetheinyl transferase, long form (Mm-ppt long) (protein)
chain: LVQLKTYDETRLRSDGVNYLGGNLSYYQACNGKRIILVSILIMYSGVKDKLTLTTNEIHLWSVTPQTIQQPELLQAYSQLLSPAETIKQQRFRFEKDRHNALITRAFVRDLLSHYADVLPADWQFVKGEKDKPEIANPPLPLRFNISHTDNLIICAVMLNDDIGCDVENTLRSSNVLSIAKHSFSDSEFNDLLTQPTAQQTSRFFDYWTLKESYIKAWGLGLSIPLKDFSFTLPEGFQQQYQQEDQQENQHCIDTIKLSFAPHRIDNPNIWRHWLFYPNNTHRVALAVRARSNNQQTEYKMRFFNSTPLINITETLIFKPETNFKPDAK
B4: Colwellia psychrerythraea phosphopantetheinyl transferase (Cp-ppt) (protein)
chain: MTSFSQSELSTRTKEKLDLAANEIHIWVTKPEELLGNDELLATYSTLLTSTETAKQQRYKFAKDRHDALITRAFIRDLLSYYADVAPQDWQFEKGNKDKPEVINCPLPLRFNISHTKNLIICAVTLEDDIGCDVENTGRNNNVLAIAERYFSSKEIDELFALPEAQQRNRFFDYWTLKESYIKAWGLGLAIPLADFSFKINDTEHNHNGLFTIKQDINLSFAEHRVDEPQIWRSWLVYPTAAIDEKQEHRIAVSLRATSDNQKTDYQLRFFNTLPLLGYQEI

molecular target: Moritella marina polyketide synthase (PKS), four polypeptides Orf5, Orf6, Orf7 and Orf8

DHA Produced (gas chromatography of fatty acid methyl esters from E. coli co-expressing the Ppt and the PKS), Yes:
B1
B2
B3
B4
